By stoichiometry N is commonly meant a count of units in the complex or per binding partner.

In data set [1] the target is T1, recombinant porcine amelogenin rP172 (porcine), P45561.
T1 chain: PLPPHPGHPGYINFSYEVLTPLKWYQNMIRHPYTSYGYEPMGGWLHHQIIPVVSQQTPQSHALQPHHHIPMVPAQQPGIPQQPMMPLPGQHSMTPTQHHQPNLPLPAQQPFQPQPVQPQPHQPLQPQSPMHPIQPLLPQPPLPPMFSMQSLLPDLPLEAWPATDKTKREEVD
The experiment in a line: cryo-EM structure. The conditions noted are these: remark: other sources report otherwise.

The data set “cryo-EM structure” deals with the molecule itself. The experiment in a line: cryo-EM structure.

B1: recombinant porcine amelogenin rP172, P45561 18-189 (natural protein)
chain: PLPPHPGHPGYINFSYEVLTPLKWYQNMIRHPYTSYGYEPMGGWLHHQIIPVVSQQTPQSHALQPHHHIPMVPAQQPGIPQQPMMPLPGQHSMTPTQHHQPNLPLPAQQPFQPQPVQPQPHQPLQPQSPMHPIQPLLPQPPLPPMFSMQSLLPDLPLEAWPATDKTKREEVD
As for B1, the stoichiometry N in data set [1] worked out at 12.

B2: full-length native porcine amelogenin P173 (natural protein, UniProt P45561 17-189, looked up)
chain: MPLPPHPGHPGYINFSYEVLTPLKWYQNMIRHPYTSYGYEPMGGWLHHQIIPVVSQQTPQSHALQPHHHIPMVPAQQPGIPQQPMMPLPGQHSMTPTQHHQPNLPLPAQQPFQPQPVQPQPHQPLQPQSPMHPIQPLLPQPPLPPMFSMQSLLPDLPLEAWPATDKTKREEVD
modifications: phosphoserine at 16 (S-16); degree of phosphorylation ~85% by mass spectrometry
Consider B2, for which the “stoichiometry N” value in “cryo-EM structure” is 12.

These data come from article PMC3752671 (Journal of structural biology, 2013).
